# Measurements as given in the Immune Epitope Database (IEDB).
# Assays:
# Test in all cases: IEDB peptide-MHC binding, purified MHC/competitive/radioactivity; filed as Kd, often an IC50 or EC50 that approximates it; ≥ and ≤ were set here for values at or beyond the usual limits of such assays
# HLA-A*11:01 = target: HLA-A*11:01
# HLA-A*03:01 = target: HLA-A*03:01
# HLA-A*33:01 = target: HLA-A*33:01
# HLA-A*68:01 = target: HLA-A*68:01
# HLA-A*31:01 = target: HLA-A*31:01
# [1] = source organism: Vaccinia virus WR
# [2] = source organism: Dengue virus 1 Brazil/97-11/1997
# [3] = source organism: SARS coronavirus Tor2
# [4] = source organism: Dengue virus 4 Philippines/H241/1956
# [5] = source organism: Mammarenavirus guanaritoense
# [6] = source organism: Dengue virus 2 Jamaica/1409/1983
# [7] = source organism: Dengue virus 3 Martinique/1243/1999
# [8] = source organism: Mammarenavirus juninense
# [9] = source organism: Vaccinia virus Copenhagen
# [10] = source organism: Lymphocytic choriomeningitis virus (strain Armstrong)
sequence,measurement,setting,value
IQTSVNTVVR,Kd,HLA-A*11:01; [1],14200 nM
same,Kd,HLA-A*03:01; [1],≥ 39700 nM
same,Kd,HLA-A*33:01; [1],≥ 29900 nM
same,Kd,HLA-A*68:01; [1],1430 nM
same,Kd,HLA-A*31:01; [1],363 nM
ITANPIVTDK,Kd,HLA-A*11:01; [2],83 nM
same,Kd,HLA-A*68:01; [2],40.5 nM
ITDMINASLK,Kd,HLA-A*11:01; [1],81.2 nM
same,Kd,HLA-A*03:01; [1],151 nM
same,Kd,HLA-A*33:01; [1],≥ 27300 nM
same,Kd,HLA-A*68:01; [1],76.3 nM
same,Kd,HLA-A*31:01; [1],10600 nM
ITTDDLVKSY,Kd,HLA-A*11:01; [1],11000 nM
same,Kd,HLA-A*03:01; [1],≥ 70100 nM
same,Kd,HLA-A*33:01; [1],≥ 70000 nM
same,Kd,HLA-A*68:01; [1],1020 nM
same,Kd,HLA-A*31:01; [1],≥ 70000 nM
KFGKNHIHR,Kd,HLA-A*11:01; [1],≥ 35800 nM
same,Kd,HLA-A*03:01; [1],12300 nM
same,Kd,HLA-A*33:01; [1],5310 nM
same,Kd,HLA-A*68:01; [1],≥ 49100 nM
same,Kd,HLA-A*31:01; [1],4.47 nM
KFTILEYLY,Kd,HLA-A*11:01; [1],2180 nM
same,Kd,HLA-A*03:01; [1],7090 nM
same,Kd,HLA-A*33:01; [1],9060 nM
same,Kd,HLA-A*68:01; [1],808 nM
same,Kd,HLA-A*31:01; [1],1030 nM
KFVFPLNSK,Kd,HLA-A*11:01; [3],1270 nM
same,Kd,HLA-A*03:01; [3],170 nM
same,Kd,HLA-A*33:01; [3],≥ 53600 nM
same,Kd,HLA-A*68:01; [3],8650 nM
same,Kd,HLA-A*31:01; [3],74.4 nM
KILDAVVAQE,Kd,HLA-A*03:01; source organism: Homo sapiens,847 nM
KIVNGVLSR,Kd,HLA-A*11:01; [1],89.2 nM
same,Kd,HLA-A*03:01; [1],328 nM
same,Kd,HLA-A*33:01; [1],7030 nM
same,Kd,HLA-A*68:01; [1],2050 nM
same,Kd,HLA-A*31:01; [1],1400 nM
KLRPKWLDAR,Kd,HLA-A*31:01; [4],2.11 nM
KSDNIINIGY,Kd,HLA-A*11:01; [1],142 nM
same,Kd,HLA-A*03:01; [1],106 nM
same,Kd,HLA-A*33:01; [1],≥ 48600 nM
same,Kd,HLA-A*68:01; [1],2930 nM
same,Kd,HLA-A*31:01; [1],3870 nM
KSKSFNHVLK,Kd,HLA-A*11:01; [3],21.6 nM
same,Kd,HLA-A*03:01; [3],1.73 nM
same,Kd,HLA-A*33:01; [3],≥ 70000 nM
same,Kd,HLA-A*68:01; [3],3660 nM
same,Kd,HLA-A*31:01; [3],6.54 nM
KTAVNMLTH,Kd,HLA-A*11:01; [5],216 nM
same,Kd,HLA-A*03:01; [5],10.1 nM
same,Kd,HLA-A*33:01; [5],≥ 77700 nM
same,Kd,HLA-A*68:01; [5],≥ 44800 nM
same,Kd,HLA-A*31:01; [5],45.3 nM
KTVQFCDAMR,Kd,HLA-A*11:01; [3],267 nM
same,Kd,HLA-A*03:01; [3],1790 nM
same,Kd,HLA-A*33:01; [3],1530 nM
same,Kd,HLA-A*68:01; [3],90.1 nM
same,Kd,HLA-A*31:01; [3],8.65 nM
KVNSTLEQY,Kd,HLA-A*11:01; [3],445 nM
same,Kd,HLA-A*03:01; [3],58.8 nM
same,Kd,HLA-A*33:01; [3],≥ 50400 nM
same,Kd,HLA-A*68:01; [3],955 nM
same,Kd,HLA-A*31:01; [3],2590 nM
KVVQHENLK,Kd,HLA-A*03:01; source organism: Dengue virus 3 Singapore/8120/1995,49 nM
KWLKECGVDR,Kd,HLA-A*31:01; [4],364 nM
LGMMVLKIVR,Kd,HLA-A*33:01; [6],1910 nM
LIGANYLGK,Kd,HLA-A*33:01; [3],≥ 77700 nM
same,Kd,HLA-A*68:01; [3],10900 nM
same,Kd,HLA-A*31:01; [3],8930 nM
LIKFISDNKK,Kd,HLA-A*11:01; [1],1010 nM
same,Kd,HLA-A*03:01; [1],142 nM
same,Kd,HLA-A*33:01; [1],≥ 10000 nM
same,Kd,HLA-A*68:01; [1],47.2 nM
same,Kd,HLA-A*31:01; [1],42.4 nM
LLRHYYNKR,Kd,HLA-A*11:01; [1],833 nM
same,Kd,HLA-A*03:01; [1],3020 nM
same,Kd,HLA-A*33:01; [1],51.3 nM
same,Kd,HLA-A*68:01; [1],2520 nM
same,Kd,HLA-A*31:01; [1],1.68 nM
LLVWHTWQK,Kd,HLA-A*03:01; [7],59 nM
LSSRATWAK,Kd,HLA-A*11:01; [4],56.5 nM
LTILDDNLY,Kd,HLA-A*11:01; [1],3240 nM
same,Kd,HLA-A*03:01; [1],11200 nM
same,Kd,HLA-A*33:01; [1],≥ 69500 nM
same,Kd,HLA-A*68:01; [1],376 nM
same,Kd,HLA-A*31:01; [1],≥ 31700 nM
LVLLILMTAR,Kd,HLA-A*11:01; [3],8740 nM
same,Kd,HLA-A*03:01; [3],3780 nM
same,Kd,HLA-A*33:01; [3],5500 nM
same,Kd,HLA-A*68:01; [3],6750 nM
same,Kd,HLA-A*31:01; [3],918 nM
MFEATARGAR,Kd,HLA-A*33:01; [2],22.3 nM
MTLVPVLEK,Kd,HLA-A*11:01; [1],6.66 nM
same,Kd,HLA-A*03:01; [1],25.3 nM
same,Kd,HLA-A*33:01; [1],1330 nM
same,Kd,HLA-A*68:01; [1],5.78 nM
same,Kd,HLA-A*31:01; [1],97.4 nM
MVDELVTRK,Kd,HLA-A*11:01; [1],161 nM
same,Kd,HLA-A*03:01; [1],68.9 nM
same,Kd,HLA-A*33:01; [1],2030 nM
same,Kd,HLA-A*68:01; [1],793 nM
same,Kd,HLA-A*31:01; [1],3950 nM
MVGLFSNNPH,Kd,HLA-A*11:01; [8],5960 nM
same,Kd,HLA-A*03:01; [8],≥ 30200 nM
same,Kd,HLA-A*33:01; [8],398 nM
same,Kd,HLA-A*68:01; [8],50 nM
same,Kd,HLA-A*31:01; [8],106 nM
MVLLIPEPEK,Kd,HLA-A*11:01; [7],115 nM
NILGGVLHTK,Kd,HLA-A*11:01; [1],36.8 nM
same,Kd,HLA-A*03:01; [1],39 nM
same,Kd,HLA-A*33:01; [1],1370 nM
same,Kd,HLA-A*68:01; [1],19.9 nM
same,Kd,HLA-A*31:01; [1],1820 nM
NKQYIHCFRK,Kd,HLA-A*11:01; [8],652 nM
same,Kd,HLA-A*03:01; [8],973 nM
same,Kd,HLA-A*33:01; [8],17500 nM
same,Kd,HLA-A*68:01; [8],1500 nM
same,Kd,HLA-A*31:01; [8],128 nM
NMLKRVRNR,Kd,HLA-A*33:01; [7],109 nM
NMLSIINKR,Kd,HLA-A*33:01; [7],23 nM
same,Kd,HLA-A*31:01; [7],42.1 nM
NMRDLIVTFR,Kd,HLA-A*11:01; [1],14800 nM
same,Kd,HLA-A*03:01; [1],10500 nM
same,Kd,HLA-A*33:01; [1],0.566 nM
same,Kd,HLA-A*68:01; [1],11.5 nM
same,Kd,HLA-A*31:01; [1],1.14 nM
NQVIVNNLDK,Kd,HLA-A*11:01; [3],13300 nM
same,Kd,HLA-A*03:01; [3],≥ 28900 nM
same,Kd,HLA-A*33:01; [3],≥ 70000 nM
same,Kd,HLA-A*68:01; [3],13400 nM
same,Kd,HLA-A*31:01; [3],≥ 40700 nM
NTIVFGIYK,Kd,HLA-A*11:01; [9],1080 nM
same,Kd,HLA-A*03:01; [9],≥ 28900 nM
same,Kd,HLA-A*33:01; [9],≥ 77700 nM
same,Kd,HLA-A*68:01; [9],1110 nM
same,Kd,HLA-A*31:01; [9],≥ 33400 nM
NVTEVKGYTK,Kd,HLA-A*68:01; [4],40.6 nM
PFKVINLPK,Kd,HLA-A*11:01; [1],665 nM
same,Kd,HLA-A*03:01; [1],9490 nM
same,Kd,HLA-A*33:01; [1],≥ 77700 nM
same,Kd,HLA-A*68:01; [1],15500 nM
same,Kd,HLA-A*31:01; [1],6360 nM
QVAINQVRR,Kd,HLA-A*68:01; [2],104 nM
RAGRVIDPR,Kd,HLA-A*31:01; [4],29.1 nM
RLCTREEFTK,Kd,HLA-A*03:01; [7],76.6 nM
TAIFLTTLSR,Kd,HLA-A*11:01; [6],298 nM
same,Kd,HLA-A*68:01; [6],2.83 nM
TFTNDSIISH,Kd,HLA-A*03:01; [10],≥ 47000 nM
same,Kd,HLA-A*33:01; [10],8720 nM
same,Kd,HLA-A*68:01; [10],6850 nM
same,Kd,HLA-A*31:01; [10],≥ 64700 nM
TTETPTWNR,Kd,HLA-A*33:01; [7],1.28 nM
same,Kd,HLA-A*68:01; [7],14.5 nM
VFKEKVDTR,Kd,HLA-A*33:01; [7],63.1 nM
VTLFFLSGK,Kd,HLA-A*11:01; [2],12.4 nM
same,Kd,HLA-A*03:01; [2],3.82 nM
YMIGQTGIQR,Kd,HLA-A*33:01; [4],79.2 nM
same,Kd,HLA-A*68:01; [4],98.3 nM
YMTSMKRFK,Kd,HLA-A*03:01; [2],897 nM
YMWQVKTQR,Kd,HLA-A*33:01; [4],1.3 nM
same,Kd,HLA-A*31:01; [4],1.41 nM
